{"source": "patent US20170274062A1", "about": "(OURO FINO SAUDE ANIMAL LTDA, published 2017)", "binders": {"B1": {"name": "Exomyc polyprotein 3, Rrp42-P216A-HSP-NrdF (other)", "chain": "MGSDNEIVAGIMRDHIINLLKEGKRIDDRGFEDYRPIEIEVGVIEKAEGSALVKLGSTQVLVGIKTSLGEPFPDTPNMGVMTTNVELVPLASPTFEPGPPDERAIELARVIDRGIRESKALNLEKMVIVPGKIVRVVFIDVHVLDHDGNLMDAIGIAAIAALLNARVPKVRYNEETGEVETLDETEPLPVEKIPVPVTFAKIGNILVVDPSLDEELVMDGKITITTDETGHISAVQKSEGGAFKLEEVMYAVETAFKKAEEIRKLILEAVEKAKQLEGQKKAVRKEEELETYNPKDEFNILNPGEISDVLLLDVTPLTLGIETLGGIATPLIPRNTTIPVTKSQIFSTAEDNQTEVTISVVQGERQLAADNKMLGRFNLSGIEAAPRGLPQIEVSFSIDVNGITTVSAKDKKTGKEQTITIKNTSTLSEEEINKMIQEAEENREADALKKDKIETTVRAEGLINQLEKSITDQGEKIDPKQKELLEKQIQELKDLLKEDKTDELKLKLDQIEAAAQSFAQATAQQANTSESDPKADDSNTIDAEIKQDGSGKQDEIKKFTFDLLYKLIELEKDYLYDLYSEVGLAESAIKFSIYNAGKFLQNLGYDSPFSKEETEIEPEIFSQLSARADENHDFFSGNGSSYVMALAEETEDEDWEF", "notes": "also called Rrp42-HSP-NrdF"}}, "key": {"[1]": {"biological_target": "T1, Exomyc polyprotein 1, Rrp4-P216B-P36-MHP271", "T1 construct": "Expressed in E. coli BL21 (DE3) from pMRK-EXOMYC; also called Rrp4-P36-MHP271", "assay": "co-expression in E. coli, co-retention on 500 kDa MWCO tangential filtration, SDS-PAGE"}, "[2]": {"biological_target": "B1", "assay": "co-expression in E. coli, co-retention on 500 kDa MWCO tangential filtration, SDS-PAGE"}}, "data": [{"binder": "B1", "values": [{"measurement": "binding result", "setting": "[1]", "value": "binds"}]}, {"binder": "Exomyc polyprotein 2, Rrp41-P46-P97R1R2 (other, also called Rrp41-P46-97R1R2) MAEKPEGLKLIDENGRRIDGRKKYELRPIKMEVGVLKNANGSAYIEWGKNKIIAAVYGPRELHPKHLQRPDRAILRVRYNMAPFSVEETKSPGPDRRSIEISKVIKGALEPALILEMFPRTAIDVFIEVLQADAGTRVAGITAASLALADAGIPMRDLVAACAAGKIEGEIVLDLNKEEDNYGEADVPVAIMPLKNDITLLQMDGYLTKDEFIEAVKLAIKGAKAVYQKQREALKEKYLKIAQEVEGSPKHKVSNDSIRIALTDPDNPRWISAQKDIISYVDETEAATSTITKNQDAQNNWLTQQANLSPAPKGFIIAPENGSGVGTAVNTIADKGIPIVAYDRLITGSDKYDWYVSFDNEKVGELQGLSLAAGLLGKEDGAFDSIDQMNEYLKSHMPQETISFYTIAGSQDDNNSQYFYNGAMKVLKELMKNSQNKIIDLSPEGENAVYVPGWNYGTAGQRIQSFLTINKDPAGGNKIKAVGSKPASIFKGFLAPNDGMAEQAITKLKLEGFDTQKIFVTGQDYNDKAKTFIKDGDQNMTIYKPDKVLGKVAVEVLRVLIAKKNKASRSEVENELKAKLPNISFKYDNQTYKVQGKNINTILVSPVIVTKANVDNPGAAKPEAAKPVAAKPETTKPVAAKPEAAKPEAAKPVAAKPEAAKPVAAKPEAAKPVAAKPEAAKPVAAKPEAAKPVATNTGFSLTNKPKEDYFPMTEGSSNQGKKSEGTPNQGKKAEGAPNQGKKAEGTPNQGKKAEGAPSQQSPTTE", "values": [{"measurement": "binding result", "setting": "[2]", "value": "binds"}, {"measurement": "binding result", "setting": "[1]", "value": "binds"}]}]}
